The values that follow are results of earlier work, collected in publication PMC7763558.

Usually Kd stands for the constant that tells how readily two partners part at equilibrium.

Common to all, as to experiment: SPR
In series [1] the target is BPTI (native client) (Bos taurus) (UniProt P00974).
Series [2] deals with BPTI (partially folded client) (Bos taurus) (UniProt P00974).
In series [3] the target is BPTI (unfolded client) (Bos taurus) (UniProt P00974).

For the substance PDI (from UniProt P07237), the results for the Kd in series [1], in series [2] and in series [3] were 394 µM, 14 µM and 3 µM, respectively.
